# From the supplement of paper PMC10567573
# B1: BRF1 (parent)
# chain: CTACGSVLEDNIIVSEVQFVESSG
# Variants of: B1
# Experiment: protein stability index of a GFP-peptide fusion (GPS, HEK-293T) (PSI 1-6); higher = more stable
# Conditions: c terminus: a fixed tail appended
# 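Further: lentivirally expressed fusions sorted by FACS into six bins by GFP to DsRed ratio, PSI derived from sequencing read proportions per bin multiplied by bin number.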
row,Variant,protein stability index
1,Q18A,3.26
2,Q18L,2.4
3,Q18P,3.1
4,Q18M,2.36
5,Q18S,2.44
6,Q18E,3.22
7,Q18C,2.52
8,Q18G,3.47
9,Q18F,1.79
10,Q18H,1.91
11,Q18N,2.77
12,Q18V,2.01
13,Q18K,3.27
14,Q18D,2.89
15,Q18I,1.82
16,Q18Y,1.47
17,Q18T,2.31
18,Q18R,2.42
19,Q18W,1.75
20,E16W,1.9
21,E16R,3.09
22,E16I,3.35
23,E16H,3.22
24,E16S,2.38

row,Variant,protein stability index
1,E16A,2.66
2,E16L,3.15
3,E16F,2.08
4,E16V,2.58
5,E16M,3.11
6,E16P,3.33
7,E16Y,3.77
8,E16N,2.9
9,E16C,3.61
10,E16D,3.87
11,E16K,3.42
12,E16Q,2.9
13,E16G,3.51
14,E16T,2.2
15,V17Q,4.07
16,V17W,2.1
17,V17N,3.56
18,V17T,4.09
19,V17I,1.92
20,V17K,4.41
21,V17E,3.88
22,V17M,2.37
23,V17H,4.4
24,V17Y,2.87

row,Variant,protein stability index
1,V17R,3.83
2,V17D,3.87
3,V17F,2.56
4,V17G,4.45
5,V17L,2.29
6,V17S,4.35
7,V17P,3.71
8,V17C,3.48
9,V17A,4.27
10,V14F,2.57
11,V14D,4.33
12,V14N,4.23
13,V14T,3.95
14,V14Q,4.25
15,V14L,2.78
16,V14C,2.64
17,V14R,3.89
18,V14S,3.49
19,V14G,3.54
20,V14K,3.53
21,V14E,4.28
22,V14Y,2.73
23,V14A,3.63
24,V14I,2.68

row,Variant,protein stability index
1,V14H,3.94
2,V14P,3.96
3,V14W,2.14
4,I12N,4.8
5,I12G,3.73
6,I12R,4.29
7,I12H,3.41
8,I12K,4.16
9,I12T,3.88
10,I12V,2.99
11,I12W,2.39
12,I12S,3.95
13,I12Y,3.15
14,I12M,3.13
15,I12D,3.08
16,I12Q,4.35
17,I12P,3.55
18,I12F,2.23
19,I12E,4
20,I12A,3.77
21,I12C,3.53
22,I12L,3.06
23,N11V,1.96
24,N11P,2.91

row,Variant,protein stability index
1,N11S,2.42
2,N11Q,2.6
3,N11M,1.05
4,N11W,1.01
5,N11Y,2.06
6,N11T,2.44
7,S15V,1.91
8,S15W,2.75
9,S15M,1.16
10,S15H,2.71
11,S15F,1.04
12,S15G,2.92
13,S15C,2.82
14,S15Q,3.11
15,S15D,4.08
16,S15N,3.79
17,S15R,3.67
18,S15Y,2.06
19,S15L,1.69
20,S15T,3.02
21,S15P,3.15
22,S15K,3.19
23,S15A,3.65
24,S15E,3.74

row,Variant,protein stability index
1,S15I,1.36
2,V20K,3.44
3,V20D,4.52
4,V20G,3.6
5,V20L,3.97
6,V20C,2.21
7,V20E,3.88
8,V20F,3.15
9,V20A,3.65
10,V20H,3.23
11,V20M,2.55
12,V20I,3.11
13,I13P,4.25
14,I13Q,4.01
15,I13M,3.97
16,I13L,2.79
17,I13C,4.75
18,I13S,4.05
19,I13A,3.96
20,I13G,3.61
21,I13H,3.84
22,I13R,3.92
23,I13K,3.89
24,I13D,3.13

row,Variant,protein stability index
1,I13T,3.56
2,I13N,3.79
3,I13F,3.08
4,I13E,4.11
5,F19V,3.11
6,F19W,2.88
7,F19N,4.33
8,F19C,2.43
9,F19A,5.26
10,F19Q,3.76
11,F19H,4.36
12,F19M,3.63
13,F19I,2.87
14,F19D,4.53
15,F19L,3.49
16,F19G,4.32
17,F19T,3.98
18,F19K,4.19
19,F19R,4.42
20,F19S,4.59
21,F19P,4.2
22,F19Y,3.49
23,F19E,4.27
